Values of other authors in paper PMC5838028.
pKd: −log10 of the molar value.

Molecular target: glypican-3 (Homo sapiens) (UniProt P51654)
Sequence (P51654 359-554): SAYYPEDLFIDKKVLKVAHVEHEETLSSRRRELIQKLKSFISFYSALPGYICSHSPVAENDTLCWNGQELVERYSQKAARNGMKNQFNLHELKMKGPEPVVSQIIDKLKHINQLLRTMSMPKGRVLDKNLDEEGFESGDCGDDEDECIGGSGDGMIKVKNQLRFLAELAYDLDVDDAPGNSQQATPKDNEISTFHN

In the case of codrituzumab, the pKd is listed as 9.17.
